Results reported in paper PMC11257509 (bioRxiv, 2024).

Biological target: the molecule itself
Experiment: SEC

B1: 10His-pG-Tn5(E54K, L372P) (enzyme, UniProt Q46731 1-476, looked up)
chain: MITSALHRAADWAKSVFSSAALGDPRRTARLVNVAAQLAKYSGKSITISSEGSKAMQEGAYRFIRNPNVSAEAIRKAGAMQTVKLAQEFPELLAIEDTTSLSYRHQVAEELGKLGSIQDKSRGWWVHSVLLLEATTFRTVGLLHQEWWMRPDDPADADEKESGKWLAAAATSRLRMGSMMSNVIAVCDREADIHAYLQDKLAHNERFVVRSKHPRKDVESGLYLYDHLKNQPELGGYQISIPQKGVVDKRGKRKNRPARKASLSLRSGRITLKQGNITLNAVLAEEINPPKGETPLKWLLLTSEPVESLAQALRVIDIYTHRWRIEEFHKAWKTGAGAERQRMEEPDNLERMVSILSFVAVRLLQLRESFTPPQALRAQGLLKEAEHVESQSAETVLTPDECQLLGYLDKGKRKRKEKAGSLQWAYMAIARLGGFMDSKRTGIASWGALWEGWEALQSKLDGFLAAKDLMAQGIKI
- binding result: binds
